The results in this text go back to patent CN109929036A (TAIZHOU MAIBO TAIKE PHARMACEUTICAL CO LTD, dated 2019).

Assay [1] has as its target CHO细胞重组表达的人PD-1胞外段全长蛋白(第20-170位氨基酸) (human) (UniProt Q15116). Description: SPR, BIACORE3000, 5L12 coupled to the chip. Background: Surface plasmon resonance follows binding to a sensor surface in real time, without labels.
In assay [2] the target is T1, 化学合成的人PD-1第75-82位氨基酸(序列QTDKLAAF) (human).
T1 peptide: QTDKLAAF
Description: SPR, BIACORE3000, 5L12 coupled to the chip.

The target in assay [3] is T2, 表面表达人PD-1的基因重组293T细胞上的人PD-1 (human, UniProt Q15116 25-288).
T2 construct: whole, on cells; also called 2H-3细胞表面PD-1; 表面表达PD-1的293T细胞
T2 sequence (Q15116 25-288): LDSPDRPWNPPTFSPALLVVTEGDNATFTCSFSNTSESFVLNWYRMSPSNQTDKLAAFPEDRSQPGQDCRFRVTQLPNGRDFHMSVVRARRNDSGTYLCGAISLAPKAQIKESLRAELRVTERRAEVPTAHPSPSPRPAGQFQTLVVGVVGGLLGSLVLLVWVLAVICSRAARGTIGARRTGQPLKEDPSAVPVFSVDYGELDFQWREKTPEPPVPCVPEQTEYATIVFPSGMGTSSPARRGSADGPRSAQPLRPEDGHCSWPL
The assay can be described thus: flow cytometry competition; displacement of FITC-PD-L1 from PD-1-expressing 293T cells. A general note: A flow cytometer gives signals particle by particle.

B1: 全人源抗PD-1单克隆抗体5L12 (antibody, human IgG4 S228P, kappa, V domains shown)
VH: EVQLVESGGGLVQPGGSLRLSCAASGYTFTSYWMLWVRQAPGKGLEWVSYIYPSTGYTEYSENFKDRFTISRDNSKNTLYLQMNSLRAEDTAVYYCARGVRYYFDYWGQGTLVTVSS
VL: DIQMTQSPSSLSASVGDRVTITCKSSQSLLDSSTRKNYLAWYQQKPGKAPKLLIYWASTRESGVPSRFSGSGSGTDFTLTISSLQPEDFATYYCKQSYNLWTFGQGTKVEIKR
notes: also called FITC-5L12
A word on the Kd: it is the constant that tells how readily two partners part at equilibrium. What is called IC50 is the midpoint of a concentration-inhibition curve. Read a low IC50 as inhibition by little substance. Molecule B1 returned a Kd in assay [1] of 10 pM. Moreover, the Kd in assay [2] is ~10 pM. Besides, in assay [3], the IC50 is ~0.03 µg/mL, the “IC50 ratio against Nivolumab” value was 0.05 fold of the IC50 of Nivolumab and the “IC50 ratio against Pembrolizumab” value was 0.5 fold of the IC50 of Pembrolizumab.
